In the supplement of paper PMC9112550, “Optimization of the antimicrobial peptide Bac7 by deep mutational scanning” (BMC Biology, 2022):

System: Escherichia coli TOP10
Test: shrunken log2 fold change of peptide-encoding DNA abundance (4.5 h post-induction vs induction); higher = less antimicrobial activity (less host growth inhibition)
Conditions: time post-induction: 4.5 h; library: site-saturation at positions 5, 18, 19, 20
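Also: peptides expressed intracellularly from a pBAD plasmid library in pooled LB shake-flask culture, induced with 0.3% L-arabinose, DNA abundance read by NGS, three biological replicates, DESeq2 with apeglm shrinkage.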

Row | Sequence | shrunken log2 fold change
1 | RRIRNRPPRLPRPRPRPSLEPRP | -0.208
2 | RRIRLRPPRLPRPRPRPYLPPRP | -0.18
3 | RRIRSRPPRLPRPRPRPEKCPRP | -0.0875
4 | RRIRLRPPRLPRPRPRPEAWPRP | 0.0169
5 | RRIRKRPPRLPRPRPRPAHYPRP | 0.123
6 | RRIRERPPRLPRPRPRPKADPRP | -0.0439
7 | RRIRCRPPRLPRPRPRPLVIPRP | -0.401
8 | RRIRARPPRLPRPRPRPNMCPRP | -0.339
9 | RRIRNRPPRLPRPRPRPMQTPRP | -0.00987
10 | RRIRGRPPRLPRPRPRPPHIPRP | 0.551
11 | RRIRQRPPRLPRPRPRPQNGPRP | 0.111
12 | RRIRERPPRLPRPRPRPLCKPRP | -0.304
13 | RRIRSRPPRLPRPRPRPQWCPRP | 0.111
14 | RRIRERPPRLPRPRPRPYRQPRP | -0.264
15 | RRIRQRPPRLPRPRPRPTHAPRP | 0.437
16 | RRIRVRPPRLPRPRPRPGIAPRP | 0.0106
17 | RRIRVRPPRLPRPRPRPKPPPRP | 0.318
18 | RRIRARPPRLPRPRPRPLIVPRP | 0.287
19 | RRIRMRPPRLPRPRPRPNFHPRP | -0.0453
20 | RRIRDRPPRLPRPRPRPVGAPRP | 0.825
21 | RRIRWRPPRLPRPRPRPHCDPRP | 0.135
22 | RRIRGRPPRLPRPRPRPYTSPRP | -0.278
23 | RRIRCRPPRLPRPRPRPLYKPRP | -0.275
24 | RRIRTRPPRLPRPRPRPQLDPRP | -0.0457
25 | RRIRMRPPRLPRPRPRPEREPRP | 1.76

Row | Sequence | shrunken log2 fold change
26 | RRIRCRPPRLPRPRPRPCTSPRP | -0.647
27 | RRIRHRPPRLPRPRPRPQYYPRP | -1.76
28 | RRIRNRPPRLPRPRPRPRWMPRP | 0.0606
29 | RRIRERPPRLPRPRPRPEDTPRP | -0.343
30 | RRIRERPPRLPRPRPRPHNLPRP | -0.47
31 | RRIRKRPPRLPRPRPRPAKAPRP | 0.106
32 | RRIRARPPRLPRPRPRPPRYPRP | 0.896
33 | RRIRWRPPRLPRPRPRPDFQPRP | 0.0985
34 | RRIRFRPPRLPRPRPRPKSGPRP | 0.0565
35 | RRIRFRPPRLPRPRPRPICWPRP | -0.134
36 | RRIRQRPPRLPRPRPRPWHKPRP | -0.334
37 | RRIRNRPPRLPRPRPRPPPAPRP | 1.09
38 | RRIRARPPRLPRPRPRPAMPPRP | -0.131
39 | RRIRPRPPRLPRPRPRPRGFPRP | 0.341
40 | RRIRVRPPRLPRPRPRPSTSPRP | -0.0898
41 | RRIRIRPPRLPRPRPRPDAHPRP | -0.136
42 | RRIRSRPPRLPRPRPRPRPGPRP | 0.658
43 | RRIRERPPRLPRPRPRPNLPPRP | -0.0648
44 | RRIRLRPPRLPRPRPRPKIEPRP | 0.0278
45 | RRIRPRPPRLPRPRPRPCWTPRP | -0.397
46 | RRIRPRPPRLPRPRPRPVNWPRP | 0.297
47 | RRIRFRPPRLPRPRPRPQYYPRP | -0.846
48 | RRIRLRPPRLPRPRPRPFRYPRP | -0.021
49 | RRIRLRPPRLPRPRPRPRLKPRP | 0.885
50 | RRIRTRPPRLPRPRPRPDWRPRP | 0.0352

Row | Sequence | shrunken log2 fold change
51 | RRIRLRPPRLPRPRPRPSFSPRP | -0.365
52 | RRIRQRPPRLPRPRPRPRYWPRP | -0.0336
53 | RRIRLRPPRLPRPRPRPQYMPRP | -0.0107
54 | RRIRDRPPRLPRPRPRPIIEPRP | 0.479
55 | RRIRSRPPRLPRPRPRPTDKPRP | -0.242
56 | RRIRPRPPRLPRPRPRPTSSPRP | 0.0475
57 | RRIRNRPPRLPRPRPRPCSEPRP | -0.231
58 | RRIRKRPPRLPRPRPRPRGLPRP | 0.41
59 | RRIRARPPRLPRPRPRPRFHPRP | -0.0673
60 | RRIRWRPPRLPRPRPRPCMTPRP | 0.317
61 | RRIRQRPPRLPRPRPRPMCVPRP | -0.308
62 | RRIRERPPRLPRPRPRPREDPRP | -0.0632
63 | RRIRYRPPRLPRPRPRPMGGPRP | -0.264
64 | RRIRMRPPRLPRPRPRPVWCPRP | -0.0672
65 | RRIRKRPPRLPRPRPRPRCGPRP | 0.451
66 | RRIRLRPPRLPRPRPRPWMRPRP | 0.892
67 | RRIRERPPRLPRPRPRPNDDPRP | -0.121
68 | RRIRLRPPRLPRPRPRPVGMPRP | -0.0033
69 | RRIRNRPPRLPRPRPRPPQTPRP | 0.424
70 | RRIRIRPPRLPRPRPRPPVCPRP | 0.108
71 | RRIRMRPPRLPRPRPRPQHNPRP | -0.605
72 | RRIRPRPPRLPRPRPRPFRFPRP | 0.0991
73 | RRIRYRPPRLPRPRPRPPWCPRP | -0.338
74 | RRIRCRPPRLPRPRPRPYYAPRP | -1.1
75 | RRIRWRPPRLPRPRPRPAENPRP | 0.568

Row | Sequence | shrunken log2 fold change
76 | RRIRSRPPRLPRPRPRPVNGPRP | -0.00994
77 | RRIRLRPPRLPRPRPRPHIMPRP | -0.531
78 | RRIRDRPPRLPRPRPRPIIDPRP | -0.02
79 | RRIRYRPPRLPRPRPRPRVSPRP | -0.216
80 | RRIRERPPRLPRPRPRPGYHPRP | -0.502
81 | RRIRCRPPRLPRPRPRPHPQPRP | 0.266
82 | RRIRQRPPRLPRPRPRPFQMPRP | -0.214
83 | RRIRFRPPRLPRPRPRPYNEPRP | -0.812
84 | RRIRRRPPRLPRPRPRPKAQPRP | -0.00801
85 | RRIRERPPRLPRPRPRPYLPPRP | -0.392
86 | RRIRYRPPRLPRPRPRPSCVPRP | -0.497
87 | RRIRCRPPRLPRPRPRPLIVPRP | -0.596
88 | RRIRIRPPRLPRPRPRPYVWPRP | -1.33
89 | RRIRERPPRLPRPRPRPKKYPRP | -0.518
90 | RRIRNRPPRLPRPRPRPPFTPRP | 0.0907
91 | RRIRVRPPRLPRPRPRPDEVPRP | 0.0201
92 | RRIRGRPPRLPRPRPRPVHPPRP | 2.04
93 | RRIRFRPPRLPRPRPRPDIEPRP | 0.0974
94 | RRIRKRPPRLPRPRPRPVASPRP | 0.533
95 | RRIRERPPRLPRPRPRPDQNPRP | -0.108
96 | RRIRCRPPRLPRPRPRPMCKPRP | -0.109
97 | RRIRMRPPRLPRPRPRPARKPRP | 1.29
98 | RRIRPRPPRLPRPRPRPHSAPRP | 0.31
99 | RRIRVRPPRLPRPRPRPVGWPRP | 0.77
100 | RRIRLRPPRLPRPRPRPAMDPRP | 0.113

Row | Sequence | shrunken log2 fold change
101 | RRIRFRPPRLPRPRPRPYWMPRP | -0.371
102 | RRIRRRPPRLPRPRPRPMIEPRP | 0.177
103 | RRIRSRPPRLPRPRPRPPLGPRP | 0.399
104 | RRIRDRPPRLPRPRPRPPGCPRP | -0.0092
105 | RRIRERPPRLPRPRPRPEIDPRP | -0.00826
106 | RRIRYRPPRLPRPRPRPDQWPRP | -0.103
107 | RRIRTRPPRLPRPRPRPKVKPRP | 0.00985
108 | RRIRPRPPRLPRPRPRPVDYPRP | 0.0307
109 | RRIRVRPPRLPRPRPRPVTEPRP | -0.164
110 | RRIRIRPPRLPRPRPRPNDVPRP | -0.0102
111 | RRIRQRPPRLPRPRPRPMSNPRP | 0.0758
112 | RRIRKRPPRLPRPRPRPTRTPRP | 0.951
113 | RRIRSRPPRLPRPRPRPLRFPRP | 0.926
114 | RRIRQRPPRLPRPRPRPMLWPRP | -0.00459
115 | RRIRPRPPRLPRPRPRPVWTPRP | 0.224
116 | RRIRTRPPRLPRPRPRPLHAPRP | 0.143
117 | RRIRLRPPRLPRPRPRPDPYPRP | 0.0541
118 | RRIRPRPPRLPRPRPRPFNYPRP | -0.269
119 | RRIRTRPPRLPRPRPRPQLPPRP | 0.107
120 | RRIRMRPPRLPRPRPRPLGVPRP | 0.8
121 | RRIRARPPRLPRPRPRPHCNPRP | 0.717
122 | RRIRIRPPRLPRPRPRPDGFPRP | -0.00369
123 | RRIRDRPPRLPRPRPRPGGSPRP | 0.25
124 | RRIRRRPPRLPRPRPRPHYPPRP | 0.158
125 | RRIRNRPPRLPRPRPRPWRPPRP | 0.337
